The text below walks through data of patent publication US10398755B2, “Clusterin pharmaceuticals and treatment methods using the same” (UNIVERSITY OF SOUTHERN CALIFORNIA, priority 2009, dated 2019).

In experiment [1] the target is T1, pro-MMP-9, MMP-9, MMP-9-ΔC (Mus musculus, UniProt P41245).
T1 construct: mixture of 30-100 ng of pro-MMP-9, MMP-9, and MMP-9-ΔC; pro-MMP-9, propeptide-cleaved MMP-9 (MMP-9), and MMP-9 with both propeptide and C-terminal region cleaved (MMP-9-ΔC); MMP-9 with both propeptide and C-terminal region cleaved (MMP-9-ΔC); purchased R&D Systems; host or cells: mouse myeloma cell line (NSO)
As to the kind of experiment: In vitro protein binding assay (CLU-His pull-down, gelatin zymography), MMP-9 forms. How it is done: (§1) (A) Recombinant proteins, Pro-MMP-9, MMP-9, MMP-9-ΔC, CLU-His were incubated together, and bound to agarose beads coupled or uncoupled with Anti-(His)6 antibody in two different binding buffers containing Brij 35 concentrations, 0.04% or 0.002%. MMPs bound to the beads were obtained by washing with the corresponding binding buffer to resolve on gelatin zymography. Three different volumes of each sample were loaded to compare the relative density. (B) Pro-MMP-9 bound to CLU coupled to agarose beads, prepared as in (A), was incubated in the presence or absence of APMA for 1 h at RT, prior to separation of beads (B) and supernatant (S) fractions, which were resolved by zymography. Arrow indicates MMP-9 processed by APMA.
(§2) A mixture of MMP-2, MMP-9, and C-terminal truncated MMP-9 (9-ΔC) was incubated with His-tagged CLU, used in a pull-down assay and resolved on a gelatin zymography gel. The input and bound samples were loaded in a series of dilution.
(§3) To make various processed forms of MMPs, pro-MMPs were incubated with 1 mM APMA in TSCB buffer at 37° C. for 4 h to make C-terminal truncated processed MMP-9 (MMP-9-ΔC) [Murphy, 1995]. CLU-His (2.5 μg) was incubated with mixture of 30-100 ng of pro-MMP-9, MMP-9, and MMP-9-ΔC, in the TSCB buffer with 0.002 or 0.04% Brij 35 for 1 h at 4° C. followed by additional incubation for 1.5 h with anti-His tag antibody-conjugated agarose beads. The beads were washed three times with the binding buffer, and dissolved in 1×SDS sample loading buffer. Relative amounts of bound MMPs were assessed on the gelatin zymography. In order to perform CLU binding domain analysis, pro-MMP-9 bound to CLU-coupled beads was prepared, as described above, and then divided into two aliquots. They were incubated with and without 1 mM APMA at RT for 1 h in TSCB buffer on the rotator. The beads (B) were spun down and solution (S) was separated. The beads were washed with TSCB and resuspended in SDS sample loading buffer. Equivalent volume of S and B fraction were subjected to gelatin zymography.
(§4) Next, we tested the interaction of secreted CLU using mouse recombinant proteins. We used purified recombinant proteins of MMP-2, MMP-9, and CLU that were secreted from a mouse myeloma cell line (NSO). All of the proteins were purchased from R&D Systems. A mixture of MMP-2, MMP-9, and C-terminal truncated MMP-9 (9-ΔC) was incubated with His-tagged CLU, and subjected to the pull-down assay, using 150 mM NaCl-containing binding buffer and anti-His tag antibody resins. Portions of the input samples (Input) and proteins bound to the antibody (Bound) were resolved on the gelatin zymography gel.
(§5) The recombinant CLU contains a (His)6-Tag at the C-terminus of the protein, which was used for pull-down experiments with anti-His tag antibody beads. It was previously reported that CLU also binds to MT6-MMP/mmp-25 and that the hemopexin domain in the MMP C-terminal region is required for their interaction (Matsuda et al., 2003). To use as an internal control for the binding experiment, we removed part of MMP-9 (MMP-9-ΔC) by promoting self-processing by APMA (4-aminophenylmercuric acetate) treatment. For the in vitro binding assay we mixed MMP-2, MMP-9, and MMP-9-ΔC (FIG. 7).
(§6) Since different detergent concentrations affected the extent of inhibition of MMP-9 activity by CLU, we tested whether detergents may influence the binding affinity of CLU for MMP-9. To test this possibility, CLU pull down assay was performed. […]

In experiment [2] the test system is pro-MMP-9, MMP-9, MMP-9-ΔC. Described as above. Further details: species or system mouse. How it is done: as §1, §2, §3, §4, §5, §6

T1 sequence (P41245 20-730, stated change not applied): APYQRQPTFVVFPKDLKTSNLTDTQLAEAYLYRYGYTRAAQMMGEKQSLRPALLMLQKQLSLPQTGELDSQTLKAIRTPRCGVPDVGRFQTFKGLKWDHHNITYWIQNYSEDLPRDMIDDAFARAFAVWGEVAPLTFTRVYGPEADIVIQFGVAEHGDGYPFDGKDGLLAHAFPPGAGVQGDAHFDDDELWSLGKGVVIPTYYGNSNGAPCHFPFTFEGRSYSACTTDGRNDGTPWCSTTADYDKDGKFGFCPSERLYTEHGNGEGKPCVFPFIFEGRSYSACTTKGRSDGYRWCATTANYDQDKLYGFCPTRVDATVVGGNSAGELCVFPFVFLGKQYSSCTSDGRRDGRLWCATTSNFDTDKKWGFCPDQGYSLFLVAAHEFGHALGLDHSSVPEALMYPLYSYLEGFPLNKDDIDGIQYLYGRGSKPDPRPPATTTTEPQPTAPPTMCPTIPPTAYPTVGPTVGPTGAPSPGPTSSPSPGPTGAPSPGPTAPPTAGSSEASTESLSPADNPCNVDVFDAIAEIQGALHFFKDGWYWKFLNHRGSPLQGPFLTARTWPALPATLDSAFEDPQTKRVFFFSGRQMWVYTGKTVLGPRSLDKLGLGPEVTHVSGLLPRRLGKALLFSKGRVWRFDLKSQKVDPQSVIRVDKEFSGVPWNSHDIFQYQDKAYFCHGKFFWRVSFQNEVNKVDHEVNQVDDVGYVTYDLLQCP

B1: CLU: secreted disulfide-linked heterodimeric glycoprotein (70-80 KD); assays used recombinant mouse CLU with C-terminal (His)6 (protein, UniProt Q06890 22-448, looked up)
Clusterin: EQEVSDNELQELSTQGSRYINKEIQNAVQGVKHIKTLIEKTNAERKSLLNSLEEAKKKKEDALEDTRDSEMKLKAFPEVCNETMMALWEECKPCLKHTCMKFYARVCRSGSGLVGQQLEEFLNQSSPFYFWMNGDRIDSLLESDRQQSQVLDAMQDSFARASGIIDTLFQDRFFARELHDPHYFSPIGFPHKRPHFLYPKSRLVRSLMSPSHYGPPSFHNMFQPFFEMIHQAQQAMDVQLHSPAFQFPDVDFLREGEDDRTVCKEIRRNSTGCLKMKGQCEKCQEILSVDCSTNNPAQANLRQELNDSLQVAERLTEQYKELLQSFQSKMLNTSSLLEQLNDQFNWVSQLANLTQGEDKYYLRVSTVTTHSSDSEVPSRVTEVVVKLFDSDPITVVLPEEVSKDNPKFMDTVAEKALQEYRRKSRAE
modifications: C-terminal His6 tag
Turning to B1, the “sensitivity of pro-MMP-9 affinity for CLU to detergent concentration” value in experiment [1] (0.002% vs 0.04% Brij 35) was “not sensitive to the detergent concentration”. In addition, in experiment [1] (band densities, Image J), the “affinity of pro-MMP-9 for CLU relative to the other forms of MMP-9” value is “at least 10 times”. The “binding of MMP-9 and MMP-9-ΔC to CLU at high detergent” value in experiment [2] (0.04% Brij 35) is “do not bind to CLU at the high Brij 35 concentration”. Moreover, in experiment [2] (150 mM NaCl binding buffer), the “binding of C-terminal truncated MMP-9 to His-tagged CLU” value is reported as “did not” and the “binding of MMP-9 to His-tagged CLU (bound vs input)” value is recorded as “highly enriched in the bound sample”.
